Measurements taken from the nanobody polyreactivity screen of Harvey et al. (2022).

experiment: yeast display, Sf9 membrane polyspecificity reagent, FACS + sequencing; frameworks hold sequencing errors
How it was run: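 Polyreactivity labels are assigned by the sorting gate from which each nanobody was recovered. The gates were low and high (top ~1%), set on anti-HA fluorescence for expression and streptavidin fluorescence for reagent binding. Before sorting, galactose-induced (36–48 hours) yeast display cells were stained for 1 hour at 4 °C with 10% biotinylated, detergent-solubilized Sf9 membrane reagent.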

Sequence | polyreactivity (PSR sort gate)
QVQLVESGGGIVQAGGSLRLSCAASGSTFLTNTMGWYRQAPGTESELVAAITLRGGRTYYADSVKGRFTISRDNAKNTVYLQMNSLKPEDTAVYYCNARNYYYPSDRDYWGQGTQVTGSS | low polyreactivity
QVQLVESGGGIVQAGGSLRLSCAASGSTFPPNAMGWYRQAPGKERELVAGINGSGGRTYYADSVKGRFTISRDNAKNTVYLQMNSLKPVDTAVYYCATRLRSEYYYNKWYYHWGQGTQVTVSS | high polyreactivity
QVQLVESGGGIVQAGGSLRLSCAASGSTFRRYAMGWYRQAPGKERELVASISWSGGSTSYADSVKGRFTISRDNAKNTVYLQMNSLKPEDTAGYYCAAVRYYWGEYYARYAYEYWGQGTQVTVSS | high polyreactivity
QVQLVESGGGIVQAGGSLRLSCAASGSTFWFNDMGWYRAAPGKEREFVAAISSSGGSTYYADSVKGRFTISRDNAKNTVYVQMNSLKPEDTAVYYWAVEVVRDYRYADWGQGTQVTVSS | low polyreactivity
QVQLVESGGGIVQAGGSLRLSCAASGSTFYLYAMGWYRQAPGKERELVAAISTVGSTNYADSVNGRFTISRDNAKNTVYLQMNSLKPEDTAVYYCNAEYYGVVEYDYWGHGTQVTVSS | low polyreactivity
QVQLVESGGGIVQAGGSLRLSCAASGSTFYVYALGWYRQAPGKERELVAAINFNGGGTYYADSVKGRFTISRDNAKNTVYLQMNRLKPEDTAVYYCNAEDDYTYDRSFGGYKYDYWGQGTQVTVSS | low polyreactivity
QVQLVESGGGIVQAGGSLRLSCAASGSTLFGDAMGLYRQAPGKERELVAAINRRGSTNYADSVKGRFTISRDNAKNTVYLKMNCLKPEDTAVYYCAAYIYKTYRYYYWGQGTQVTVSS | high polyreactivity
QVQLVESGGGIVQAGGSLRLSCAASGYTFTGYSMGWYRQAPGKEREFVAGITWRTGRTYYADSVKGRFTISRDNAKNNVYLQMNSLKREDTAVYFCYKDHQRRYYWSYDYWGQGTQVTVSS | low polyreactivity
QVQLVESGGGIVQAGGSLRLSCAASVFTFRANTMGWYRPAPGKERELVAAISPSGGSTYYADSVKGRFTISRDNAKNTVYLQMNSLKPEDTAVYYCNADIEYRPGHGRLGDYDYWGQGTQVTVSS | low polyreactivity
QVQLVESGGGIVQAGGSLRLSCPASGFIGVNGMGWYIQAPGKERELVAAISSGGSTNYADSVKGRFTMSRDNAKNTVYLQMNSLKPEDTAVYYCAKDFLLDSFYHTYRYRYDYWGQGTQVTVSS | low polyreactivity
QVQLVESGGGIVQAGGSLRLSCSASGFSFSSYAMGWYRQAPGKERELVASITWSGGRTYYADSVKGRFTISRDNAKNTVYLQMNSLKPEDTAVYYCAPGDVNWSYSLLYTVVLFDSWGQGTQVTVSS | high polyreactivity
QVQLVESGGGIVQAGGSLRLSWAASGFIFNNYAMGWYRQAPGKERELVAAITGGGSTNYADSVKGRFTISRDNAKNTVYLQMNSLKPEDTAVYYCNAEGVWWSTRYDSWGQGTQVTVSS | low polyreactivity
QVQLVESGGGIVQAGGSLRLSWAASGSINYRNARGCYRQAPGKERELVAAISSDGSTNYADSVKGRFTISRDNAKNTVYLQMNRLKPEDTAVYSCASPWTQILDYWGKGTQVTVSS | low polyreactivity
QVQLVESGGGIVQAGGSLRLTCAASGSIFVNNAIGWYIQAPGKERELVADIRRSGGNTYYADSVKGRFTISRDNAKNTVYLQMNSLKPEDTAVYYCNVVRRADSIRAKSRDYWGQGTQVTVSS | high polyreactivity
QVQLVESGGGIVQAGGSLRLTCAASGSTFEIYAMGWYRQAPGKERELVAAISSGGSTNYADSVKGRFTISRDNAKNTVYLQMNSLKPDDTAVYDCAAVLYSRLYWYRLDYWGQGTQVTVSS | low polyreactivity
QVQLVESGGGIVQAGGSLRLTCAASGYIFYSYAMGWYRHAPGKERELVATISSGGSTYYADSVKGRFTISRDNAKNTVYFQMNSLKPEDTAVYYCATDHDIVYNFNRYDYWGQGTQVTVSS | low polyreactivity

Sequence | polyreactivity (PSR sort gate)
QVQLVESGGGIVQAGGSLRVSCAASGRTYLRNAMGWSRQAPGKERELVASITSRGGRTYADSVKGRFTISRDNAKNTVYLQMNSLKPEDTAVYYCDARRQAGLRYDYWGQGTQVTVSS | high polyreactivity
QVQLVESGGGIVQSGGSLRLICAASGGIFKYNAMGWYRQAPGKERELVAAINYSGGRTYYADSVKGRFTISRDNAKNTVYLQMNSLKPEDTAVYYCNALTRGHTGQPYTYDYWGQGTQVTVSS | high polyreactivity
QVQLVESGGGLAQAGGSLRLSCAASGSTFYSYAMGWYRQAPGKERELVAGITWNDGSTYYADSVKGRFTISRDNAKNTVYLQMNSLKPEDTAVYYCNTDASPYLFDYWGHGTQVTVSS | low polyreactivity
QVQLVESGGGLDAAGGSLRLSCAASGSTVIAYAMGWYRQAPGKEWELVAVMTSRGGRTYYADSVKGRFTISRDNAKNTVYLQMNSQKPEDTAVYYCATRSYRYLRSYDYWGQGTQVTVSS | high polyreactivity
QVQLVESGGGLDHAGGSLRLSCADSGRIFNYNAMGWYIQAPGKESELVAAISWDGGSTYYADSVKGRFTISRDNAKNTVYLQINSLKPEDSAVYYCAAQYIWSSYRYYYWGQGTQVTVSS | high polyreactivity
QVQLVESGGGLDHAGGSLRLSCAPSGRIFSVNAMGWYRQAPGKERELVAAITSGDSTNYADSVKGRFTISRDNAKNTVYLQSNSMKQEDTAVYYCNARGSQELWRRKWYHTEYDSWGQGTQVSVSS | low polyreactivity
QVQLVESGGGLDHARGSLRLICPASGRTFAPYAMGWYRQAPGKERELVARITWSGTDTYYADSVKGRFTISRDNAKNTVYLQMNCLKPDDTAVYYCAADARYSRRYYYWGQGTQVTVSS | low polyreactivity
QVQLVESGGGLDQAGCSLRLSCAASGRIFPYMGWYRQAPGKDRELVAAINASGGRTYYADSVKGRFTISRDNAKNTVYLQMNSLKPEDTAVYYCNAVWSSDTYTHPQYDYWGQGTQVTVSS | high polyreactivity
QVQLVESGGGLDQAGCSLRLSWAASGITSYYNAMGWYRQAPGKERELVAAITSGGSTYYADSVKGRFTISRDNAKNTVYLQMNSLKPEVTAVYYCARRSRYLWRYDYWGQGTQVTVSS | high polyreactivity
QVQLVESGGGLDQAGGRLRLSCAASGITFGRNTMGWYRQSPGKERELVAAIDSGGNTYADSVKGRFTISRDNAKNTVYLQMNSLKPEDTAVYYCAVDGGEFSSYGYWGQGTQVTVSS | low polyreactivity
QVQLVESGGGLDQAGGSLLLSCAASGSIFNDYAMGWYRQAPGKERELVAAISTSDGSTYYADSVKGRFTISRDNAKNTVYLQMKSLKPEDTAVYYCAVVSDYYYYPPYGYWGQGTQVTVSS | low polyreactivity
QVQLVESGGGLDQAGGSLPLRCAATGSIFHDYALGWYSQAPGKERELVAVISTSGGSTYYADSVKGRFTISRDNAKNTVYLQMNSLKPEDTAVYYCNAELSFWALGYDYWGQGTQVTVSS | low polyreactivity
QVQLVESGGGLDQAGGSLRLICAASGFTITNNAMGWYRQAPGKEREFVAAISASGGSTYYADSVKGRFTISRDNAKNTVYLQMNSLKPEDTAVYYCAVEPVYIVSEVLFDYWGQGTEVTVSS | low polyreactivity
QVQLVESGGGLDQAGGSLRLICAASGFTYPIYAMGWYRQAPGKERELVAAITTRGGRTYYADSVKGRFTISRDNAKNTVYLQMNSLKAEDTAVYYCNALGYAYRLWFGYWGEGTQVTVSS | high polyreactivity
QVQLVESGGGLDQAGGSLRLICAASGITIEYYAMAWYRTAPGKERELVAAISSGGGSTYYADSVKGRFTISRDNAKNSVYLQMISLKPEDTAVYYCAADIVSSPSSYVPPGDYWGQGTQVTVSS | low polyreactivity
